Experimental data published in patent publication US8883973B2.

Target: human FcRn (complex of His-tagged FcRn alpha chain with beta 2 microglobulin) (human) (UniProt P55899)
Assay: SPR (Biacore), human FcRn on chip, pH 6.0

fold FcRn binding (fold of Ka* relative to WT IgG1) [fold] | fold FcRn binding (fold of Ka* relative to WT) [fold] | Substance
3.4 |  | 257L IgG1 anti-VEGF antibody
3.5 |  | 257N IgG1 anti-VEGF antibody
 | 17.3 | 428L/434S IgG1 anti-VEGF antibody
 | 3.8 | 434S IgG1 anti-VEGF antibody
